Drawing on paper doi:10.1101/2021.08.25.457680, this text covers Kd, dH and stoichiometry N for three molecules.

Assay [1] concerns the target hDLG1 PDZ1+2 tandem (human) (UniProt Q12959). As to the kind of experiment: NMR titration.
The target of assay [2] is hDLG1 PDZ2 domain (human). As to the kind of experiment: ITC. A general note: In ITC the heat of successive injections is recorded.
Assay [3] has as its target hDLG1 PDZ1 domain (human). As to the kind of experiment: ITC.
For assay [4], the target named is syntenin-1 PDZ2 domain (human). As to the kind of experiment: NMR titration.
Assay [5] concerns the target syntenin-1 PDZ1 domain (human). As to the kind of experiment: NMR titration.
For assay [6], the target named is hDLG1 PDZ1 domain (human). As to the kind of experiment: NMR titration.

Where no end group is shown, it is not given here.

hDLG1 PDZ1 domain (human), sequence (Q12959 219-551): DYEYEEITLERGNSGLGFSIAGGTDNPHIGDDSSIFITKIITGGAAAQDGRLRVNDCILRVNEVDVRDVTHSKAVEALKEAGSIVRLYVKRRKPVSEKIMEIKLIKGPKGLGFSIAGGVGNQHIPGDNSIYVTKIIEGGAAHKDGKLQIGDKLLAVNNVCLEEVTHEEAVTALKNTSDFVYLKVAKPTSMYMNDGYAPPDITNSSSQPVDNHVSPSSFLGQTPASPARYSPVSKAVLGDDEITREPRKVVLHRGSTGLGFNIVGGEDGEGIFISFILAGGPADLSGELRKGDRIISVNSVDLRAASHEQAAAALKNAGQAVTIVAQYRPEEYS
hDLG1 PDZ2 domain (human), sequence (Q12959 219-551): as above
syntenin-1 PDZ2 domain (human), sequence (O00560 whole entry, the tested form may be a part): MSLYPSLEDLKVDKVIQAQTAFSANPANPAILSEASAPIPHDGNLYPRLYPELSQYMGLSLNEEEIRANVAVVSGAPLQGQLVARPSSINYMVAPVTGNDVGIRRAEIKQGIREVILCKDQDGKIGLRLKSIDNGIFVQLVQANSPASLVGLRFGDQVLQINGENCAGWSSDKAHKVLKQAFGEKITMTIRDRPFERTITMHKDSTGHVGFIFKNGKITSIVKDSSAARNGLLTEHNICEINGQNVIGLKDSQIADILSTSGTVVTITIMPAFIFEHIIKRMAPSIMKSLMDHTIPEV
syntenin-1 PDZ1 domain (human), sequence (O00560 whole entry, the tested form may be a part): as above

One may read the Kd as the equilibrium constant for the complex coming apart. Read a low Kd as tighter binding. “Tax2 10mer peptide (last 10 amino acids of Tax-2)” came in with a dissociation constant (Kd) in assay [1] of more than 5000 µM.

B1: Tax-1 10mer peptide (last 10 C-terminal amino acids of Tax-1) (peptide)
peptide: SEKHFRETEV
For orientation: stoichiometry N means a count of units in the complex or per binding partner. For the molecule B1, the Kd worked out at 0.9 µM in assay [2], 2.7 µM in assay [3], 1550 µM in assay [4] and 2580 µM in assay [5]. The values for the dH in assay [2] and in assay [3] were -10.4 kcal/mol and -8 kcal/mol, respectively. Also, the stoichiometry N in assay [2] came out at 0.99; in assay [3], 1.03.

B2: C-terminally amidated Tax-1 10mer peptide (Tax-1mod) (peptide)
peptide: SEKHFRETEV
modifications: not fully specified (C-terminus)
For B2, in assay [6], the dissociation constant (Kd) was determined as 951 µM.
